According to the supplement of paper PMC10126150:
± gives the standard deviation of the averaged measurements.

System: ATP
Test: switch fluorescence ratio, 500 uM ATP over buffer (Cy3 cluster intensity, sum of 5 cycles each) (fold (ratio)); higher = stronger signal-on switching upon ATP binding; sequences stand for … in TCGTCGGCAGCGTCAGATGTGTATAAGAGACAGTTTTTTTTTTTTTTTTTTTTTTTTT…TC
Settings: aptamer strand: ATP DNA aptamer (quencher-CACCTGGGGGAGTATTGCGGAGGAAGG + anchor), 100 nM annealed; ATP concentration: 500 uM
Outline: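 For every switch-domain sequence, the fluorescence ratio is the mean of per-cluster values, each being summed target-cycle Cy3 intensity over summed buffer-cycle Cy3 intensity. Clusters outside 100-1000 RFU were excluded. On a modified Illumina MiSeq flow-cell, the Cy3-labelled switching-strand clusters were annealed to 100 nM quencher-labelled ATP aptamer, imaged in selection buffer and then after 15 min with 500 uM ATP at 22 °C. Five such cycles were run, with NaOH stripping and re-annealing between them.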
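Further: ATP exposure 15 min at 22 °C before imaging.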

Row | Sequence | switch fluorescence ratio
1 | AGTGGGTTTT | 0.988 ± 0.043
2 | ACTGGAGGAG | 1.01 ± 0.017
3 | CGCGGGTTGA | 1.053 ± 0.0094
4 | GTTTTGTTGT | 0.99 ± 0.027
5 | CGAAGTCTTT | 0.989 ± 0.044
6 | TGAGCCTCGG | 0.965 ± 0.032
7 | GGTAGGGGCG | 1.03 ± 0.031
8 | ATTTCAGGGA | 0.978 ± 0.024
9 | ACTGAATGCT | 0.973 ± 0.049
10 | GGTTAGATGG | 0.978 ± 0.043
11 | TTTTACGCAC | 1.81 ± 0.024
12 | ACTATGAGCT | 1.04 ± 0.041
13 | TATGCGCCGT | 0.984 ± 0.026
14 | GTTTCGAGGG | 0.974 ± 0.037
15 | TTTTGGCCTG | 1.02 ± 0.038
16 | AATCCATGGC | 0.98678 ± 6.8e-05
17 | TCGGAATATT | 1.09 ± 0.062
18 | CTAGTTTTTG | 0.997 ± 0.049
19 | TATGGGGTAG | 1 ± 0.013
20 | GTAACGGGGC | 0.982 ± 0.049
21 | CACTAACTA | 1.121 ± 0.0035
22 | TTCTGGATTA | 0.994 ± 0.036
23 | TTTTTTCATC | 1.031 ± 0.0078

Row | Sequence | switch fluorescence ratio
24 | GGGGGAAAAA | 0.998 ± 0.059
25 | CAAAAGAACG | 0.975 ± 0.031
26 | ATCCGAACGG | 1.03 ± 0.048
27 | CCTTTTACTT | 1.03 ± 0.032
28 | TGAGATACAT | 1.13 ± 0.1
29 | GGGTTTGTTT | 1.02 ± 0.046
30 | GATGGTAGTT | 1.012 ± 0.0024
31 | ATCTGCTCTT | 1.01 ± 0.04
32 | GGGAGTGAGG | 1.01 ± 0.011
33 | TTTAAGGGAT | 1 ± 0.041
34 | AATATGTTCT | 1.02 ± 0.014
35 | CTTTTGGCCT | 1.03 ± 0.038
36 | CCCCGACTTT | 1.07 ± 0.018
37 | GATTGACCAT | 1.041 ± 0.0099
38 | GTCAGTGGCT | 0.998 ± 0.018
39 | GGCGCCTTTT | 0.988 ± 0.033
40 | TTTGTCGACC | 0.992 ± 0.0055
41 | GGTTCTACAT | 0.998 ± 0.03
42 | GGGCCAACGA | 1.042 ± 0.0014
43 | GCTTAGGGGG | 1.031 ± 0.0069
44 | TATCGTATGT | 0.991 ± 0.027
45 | GACAATTCGG | 1.01 ± 0.021
46 | TGATGGAAGG | 0.958 ± 0.06

Row | Sequence | switch fluorescence ratio
47 | TGCCGAGATC | 1 ± 0.013
48 | TTGAATACAC | 1.11 ± 0.17
49 | TTTTAAAAAG | 1 ± 0.012
50 | CGGATTCGTA | 0.986 ± 0.036
51 | ACGCGGCGTG | 0.982 ± 0.03
52 | CTGCTTGTGA | 1.02 ± 0.026
53 | AAGCAGACGG | 1.05 ± 0.036
54 | TGTAGGGGTA | 0.98 ± 0.045
55 | CAGGGGGGCG | 1.04 ± 0.088
56 | GCATCCGGGA | 0.956 ± 0.039
57 | TAAGTAGATT | 0.995 ± 0.018
58 | TGATTAGGGT | 1.05 ± 0.076
59 | CAATCATAGT | 0.989 ± 0.028
60 | CATATGTAGA | 0.997 ± 0.023
61 | TTGAATAAAA | 1.005 ± 0.0096
62 | ATTGTAAGTG | 1.03 ± 0.088
63 | CATTTTTGTT | 0.979 ± 0.031
64 | CTAATGACGT | 1.01 ± 0.015
65 | GTTGGGGAGG | 1.01 ± 0.035
66 | AAAGTAATGG | 1.04 ± 0.022
67 | CGCTCGTTGT | 0.9559 ± 0.0033
68 | AGCGTTCTGG | 1.04 ± 0.041
69 | TGTTTGACGA | 0.991 ± 0.05

Row | Sequence | switch fluorescence ratio
70 | CTTAGATGGT | 0.975 ± 0.015
71 | GGCTTAGGGG | 0.979 ± 0.022
72 | TTAGAGGTTG | 1.13 ± 0.21
73 | GGTCCCAAAA | 0.981 ± 0.032
74 | CCTGTTCGCT | 1.21 ± 0.014
75 | TCAGGGGATT | 1.02 ± 0.031
76 | CAGATGTGGC | 0.927 ± 0.037
77 | TTTGGTTGG | 1.0076 ± 0.00057
78 | GTCGGGCCAG | 0.985 ± 0.025
79 | TAGGAGTGAG | 0.979 ± 0.026
80 | ACTTTGGACA | 1.038 ± 0.0052
81 | CAAAAGATTC | 1.045 ± 0.0095
82 | AGAAAGTTTG | 1.01 ± 0.044
83 | AGCATGGTAT | 1 ± 0.04
84 | CAACGCCTCC | 3.52 ± 0.082
85 | TCGGGGGTGG | 0.988 ± 0.014
86 | TACTGCGGAA | 1.79 ± 1.2
87 | TTTAGTGGGG | 0.97 ± 0.01
88 | CTTTACGTCG | 0.982 ± 0.016
89 | TTAAGTAATA | 1.02 ± 0.014
90 | GGGAAGGCCA | 0.973 ± 0.024
91 | TCCGAATGCG | 1.11 ± 0.0041
92 | TGTTGCATAA | 0.968 ± 0.016

Row | Sequence | switch fluorescence ratio
93 | CGGAGGGGCC | 1.02 ± 0.033
94 | TCTGTTTTGG | 1 ± 0.038
95 | TCTTTTGGTG | 1.03 ± 0.019
96 | ACAAGTTCAG | 0.993 ± 0.023
97 | TTCCCATTTA | 1.04 ± 0.02
98 | TACGTTTTAA | 0.9938 ± 0.0087
99 | TATTTGTTTG | 0.984 ± 0.03
100 | CTTTGTTTTT | 0.9893 ± 0.0089
101 | CGCTTATCCT | 1.1 ± 0.038
102 | GGGTTGCTAC | 1.02 ± 0.017
103 | TCGGATTGGA | 0.981 ± 0.028
104 | TGGAAATCGT | 1.07 ± 0.083
105 | TATTTGAAAG | 1 ± 0.04
106 | ATTGATTTTC | 0.999 ± 0.024
107 | TTAATAGTTA | 0.992 ± 0.028
108 | TATGGATCGC | 1.01 ± 0.026
109 | GGGGTAGGCG | 0.959 ± 0.051
110 | GGTTGCTCGT | 1.008 ± 0.0092
111 | AATTGTTTAG | 0.982 ± 0.034
112 | ACGGGGGATT | 1.03 ± 0.034
113 | ACAGGGCGGG | 1.01 ± 0.035
114 | TTTTTCATAT | 1.08 ± 0.2
115 | CAGTTTGATG | 1.003 ± 0.0083

Row | Sequence | switch fluorescence ratio
116 | ACAGCGGGA | 1.0254 ± 4.6e-06
117 | TCAGAATTTT | 1.04 ± 0.02
118 | GATTTTCCTT | 1.01 ± 0.027
119 | TATCATTTTT | 1 ± 0.011
120 | ACCAGGGCTT | 1.08 ± 0.021
121 | GGGGGCTCTG | 0.999 ± 0.028
122 | ATATTAGTCT | 1.001 ± 0.0035
123 | ATATAGTAAT | 0.9842 ± 0.0078
124 | AATGATGGGT | 0.985 ± 0.019
125 | TCCGCAGAG | 6.2 ± 0.49
126 | GGGGGTAGGA | 1.02 ± 0.038
127 | TTATGGGTCT | 1 ± 0.036
128 | AACCTCTTAG | 0.992 ± 0.026
129 | TATAAGAGCC | 0.984 ± 0.043
130 | CTTGGTAGGG | 1.03 ± 0.051
131 | AAAAGTATAA | 1.03 ± 0.036
132 | GACTATTGAA | 1 ± 0.056
133 | AAGGACAAGG | 0.999 ± 0.043
134 | TAAATTTTTT | 0.996 ± 0.032
135 | GGGGGGGTCG | 0.983 ± 0.048
136 | TTAAATGAAA | 1.02 ± 0.013
137 | CAGGGGTTTG | 1 ± 0.051
138 | ACCCAGACGC | 1.35 ± 0.058

Row | Sequence | switch fluorescence ratio
139 | TACGAATGGG | 1.01 ± 0.037
140 | AAGACATGGG | 1.002 ± 0.0021
141 | TTTTATGGAC | 1.03 ± 0.03
142 | TTACTTCTCA | 1 ± 0.011
143 | TGTTGTAGTC | 0.965 ± 0.017
144 | CCTACGGGCC | 2.16 ± 0.12
145 | GGTTTCTCGT | 0.967 ± 0.04
146 | AGGGAGGGCT | 1.02 ± 0.02
147 | TAACCCTGAA | 0.984 ± 0.015
148 | AGTCTGGGTA | 0.965 ± 0.016
149 | TTGCAAAAAT | 1 ± 0.046
150 | GGAACCCGTG | 0.997 ± 0.048
151 | TGGACTCGGA | 1.03 ± 0.071
152 | AATTGATTTT | 1.01 ± 0.03
153 | GGGATGAATA | 0.982 ± 0.042
154 | CAGGGTGGTT | 1.03 ± 0.028
155 | GGTTAGGAAG | 1.005 ± 0.0037
156 | CTCATCGGTT | 1.007 ± 0.0011
157 | GAAGTATGAT | 0.962 ± 0.042
